Measured values as given in publication PMC7435236, “Self‐Assembling Glycopeptide Conjugate as a Versatile Platform for Mimicking Complex Polysaccharides” (Advanced Science, 2020).

Test system: splenocytes from immunized mice
Experiment: IFN‐γ production by splenocytes of immunized mice after in vitro re-stimulation (ELISA)
Type: in vivo, C57BL/6 mice
Details: spleen cells from vaccinated mice (NPs plus OVA, or OVA only), OVA stimulation 48 h in vitro
Procedure: To further investigate the activation ability of mannosylated nanoparticles, the spleen cells from mice that vaccinated for 4 weeks with mannosylated NPs plus OVA (group 1) and OVA only (group 4) were stimulated by OVA for 48 h in vitro. The expression levels of IFN‐γ in cell media with or without OVA stimulation was measured by ELISA (Figure 6c).
After immunization, the spleens of the immunized mice were removed under sterile conditions and suspended in sterile cold PBS. After centrifugation, the cell suspension was diluted to 2 × 10^6 cells mL^−1 in RPMI 1640 supplemented with 10% FBS, 100 µg mL^−1 streptomycin and 100 unit mL^−1 penicillin, and cultured overnight. After removal of the non‐adherent cells, the medium was changed, and the OVA protein in buffer and PBS buffer only were added to different wells, respectively, and cultured for 48 h. The culture media was then collected and diluted for the ELISA tests. Following the instructions of ELISA kit, the samples, anti‐IFN‐γ antibody, and chromogenic substrates were added in order. The corresponding OD450 was measured by Multiskan GO (Thermo Scientific) microplate reader.

B1: OVA: Ovalbumin, model antigen for evaluation of vaccine adjuvants (protein, UniProt P01012 2-386, looked up)
Ovalbumin: GSIGAASMEFCFDVFKELKVHHANENIFYCPIAIMSALAMVYLGAKDSTRTQINKVVRFDKLPGFGDSIEAQCGTSVNVHSSLRDILNQITKPNDVYSFSLASRLYAEERYPILPEYLQCVKELYRGGLEPINFQTAADQARELINSWVESQTNGIIRNVLQPSSVDSQTAMVLVNAIVFKGLWEKAFKDEDTQAMPFRVTEQESKPVQMMYQIGLFRVASMASEKMKILELPFASGTMSMLVLLPDEVSGLEQLESIINFEKLTEWTSSNVMEERKIKVYLPRMKMEEKYNLTSVLMAMGITDVFSSSANLSGISSAESLKISQAVHAAHAEINEAGREVVGSAEAGVDAASVSEEFRADHPFLFCIKHIATNAVLFFGRCVSP
IFN‐γ expression in cell media: Upregulation of IFN‐γ
